According to US20110098217A1 (INDIANA UNIVERSITY RESEARCH AND TECHNOLOGY, published 2011):
Read-outs that look alike come from different tables or passages of the source. Bridge positions count the residues as written; N and C are the ends. Square brackets hold non-standard residues; d marks the D form. Primed or numbered codes have the meaning given here. Side chains are listed from the residue outwards. Ends that are not written are not given here. Glu = Glu spacer between Lys side chain and the C16 fatty acid (EC16FA); PEG 20 kDa″ = 20 kDa polyethylene glycol (PEG); PEG 20 kDa = 20 kDa polyethylene glycol; PhLac = O=C(O)[C@@H](O)Cc1ccccc1; Mpa = O=C(O)CCS

Columns and labels:
human glucagon receptor [1] = molecular target: T1, human glucagon receptor (human, UniProt P47871 26-477); assay: cell-based or functional assay
T1 sequence (P47871 26-477): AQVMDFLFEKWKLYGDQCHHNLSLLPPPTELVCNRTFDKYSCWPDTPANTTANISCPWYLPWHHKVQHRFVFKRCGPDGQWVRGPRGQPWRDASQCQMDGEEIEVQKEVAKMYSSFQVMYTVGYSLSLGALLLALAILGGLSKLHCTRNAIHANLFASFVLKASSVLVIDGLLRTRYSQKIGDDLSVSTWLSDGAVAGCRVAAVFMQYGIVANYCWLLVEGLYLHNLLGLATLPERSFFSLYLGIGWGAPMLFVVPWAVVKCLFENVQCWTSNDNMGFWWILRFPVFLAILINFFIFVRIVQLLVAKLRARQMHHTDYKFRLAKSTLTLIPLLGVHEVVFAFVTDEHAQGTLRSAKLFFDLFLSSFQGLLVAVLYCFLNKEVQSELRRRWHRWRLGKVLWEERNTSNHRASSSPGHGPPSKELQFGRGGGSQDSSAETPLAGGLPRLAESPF

human glucagon receptor [2] = molecular target: T1, human glucagon receptor; assay: cell-based or functional assay; remark: listed apart in the source
human glucagon receptor [3] = molecular target: T1, human glucagon receptor; assay: SPA competition vs 125I-glucagon, receptor membranes
human glucagon receptor [4] = molecular target: T1, human glucagon receptor; assay: as above; remark: listed apart in the source
human glucagon receptor [5] = molecular target: T1, human glucagon receptor; assay: cell-based or functional assay; remark: listed apart in the source
human glucagon receptor [6] = molecular target: T1, human glucagon receptor; assay: SPA competition vs 125I-glucagon, receptor membranes; remark: listed apart in the source
human glucagon receptor [7] = molecular target: T1, human glucagon receptor; assay: cell-based or functional assay; remark: listed apart in the source
human GLP-1 receptor [8] = molecular target: T2, human GLP-1 receptor (human, UniProt P43220 24-463); assay: cell-based or functional assay
human glucagon receptor [9] = molecular target: T1, human glucagon receptor; assay: cell-based or functional assay; remark: listed apart in the source
human GLP-1 receptor [10] = molecular target: T2, human GLP-1 receptor; assay: cell-based or functional assay; remark: listed apart in the source

FTSDYSKYLDSRRAQDFVQWLMNT-NH2 (also called peptide no; 15) [Glucagon(aa6-29)-NH2]
cAMP (I/A)50 inhibition index (human glucagon receptor [1]): 1730 | cAMP pA2 (human glucagon receptor [1]): 6.94 | cAMP IC50 (human glucagon receptor [2]): 346 nM | cAMP pA2 (human glucagon receptor [2]): 6.94 | IC50 (human glucagon receptor [3]): 1890 nM | IC50 (human glucagon receptor [4]): 1670 nM

B1: [Lys^9]Glucagon(aa6-29)-NH2 (peptide)
peptide: FTSKYSKYLDSRRAQDFVQWLMNT-NH2
notes: also called [K^9]Glucagon(aa6-29)-NH2; peptide no; 16
cAMP (I/A)50 inhibition index (human glucagon receptor [1]): 1990 | cAMP pA2 (human glucagon receptor [1]): 6.58 | cAMP IC50 (human glucagon receptor [2]): 398 nM | cAMP pA2 (human glucagon receptor [2]): 6.58 | IC50 (human glucagon receptor [3]): 5780 nM | IC50 (human glucagon receptor [4]): 3240 nM

B2: [PLA^6, D^9]Glucagon(aa6-29)-COOH (peptide)
peptide: [PhLac]TSDYSKYLDSRRAQDFVQWLMNT-OH
modifications: N-terminus assumed
SMILES: CSCC[C@H](NC(=O)[C@H](CC(C)C)NC(=O)[C@H](Cc1c[nH]c2ccccc12)NC(=O)[C@H](CCC(N)=O)NC(=O)[C@@H](NC(=O)[C@H](Cc1ccccc1)NC(=O)[C@H](CC(=O)O)NC(=O)[C@H](CCC(N)=O)NC(=O)[C@H](C)NC(=O)[C@H](CCCNC(=N)N)NC(=O)[C@H](CCCNC(=N)N)NC(=O)[C@H](CO)NC(=O)[C@H](CC(=O)O)NC(=O)[C@H](CC(C)C)NC(=O)[C@H](Cc1ccc(O)cc1)NC(=O)[C@H](CCCCN)NC(=O)[C@H](CO)NC(=O)[C@H](Cc1ccc(O)cc1)NC(=O)[C@H](CC(=O)O)NC(=O)[C@H](CO)NC(=O)[C@@H](NC(=O)[C@@H](O)Cc1ccccc1)[C@@H](C)O)C(C)C)C(=O)N[C@@H](CC(N)=O)C(=O)N[C@H](C(=O)O)[C@@H](C)O
IC50 (cAMP, inhibit 0.1 nM Glucagon) (human glucagon receptor [5]): 13.2 nM | IC50 (human glucagon receptor [6]): 15.5 nM

B3: [PLA^6, D^9]Glucagon(aa6-29)-NH2 (peptide)
peptide: [PhLac]TSDYSKYLDSRRAQDFVQWLMNT-NH2
modifications: N-terminus assumed
SMILES: CSCC[C@H](NC(=O)[C@H](CC(C)C)NC(=O)[C@H](Cc1c[nH]c2ccccc12)NC(=O)[C@H](CCC(N)=O)NC(=O)[C@@H](NC(=O)[C@H](Cc1ccccc1)NC(=O)[C@H](CC(=O)O)NC(=O)[C@H](CCC(N)=O)NC(=O)[C@H](C)NC(=O)[C@H](CCCNC(=N)N)NC(=O)[C@H](CCCNC(=N)N)NC(=O)[C@H](CO)NC(=O)[C@H](CC(=O)O)NC(=O)[C@H](CC(C)C)NC(=O)[C@H](Cc1ccc(O)cc1)NC(=O)[C@H](CCCCN)NC(=O)[C@H](CO)NC(=O)[C@H](Cc1ccc(O)cc1)NC(=O)[C@H](CC(=O)O)NC(=O)[C@H](CO)NC(=O)[C@@H](NC(=O)[C@@H](O)Cc1ccccc1)[C@@H](C)O)C(C)C)C(=O)N[C@@H](CC(N)=O)C(=O)N[C@H](C(N)=O)[C@@H](C)O
IC50 (cAMP, inhibit 0.1 nM Glucagon) (human glucagon receptor [5]): 6.9 nM | IC50 (human glucagon receptor [6]): 13.8 nM

[PhLac]TSDYSKYLDERRAKDFVK([Mpa-PEG 20 kDa″])WLMDT-NH2 (lactam 11-15) [[PLA6, E16K20(Lactam), K24(COCH2CH2S-20 kDa)] G(6-29)]
Glucagon antagonism IC50 (inhibit 0.2-0.8 nM glucagon) (human glucagon receptor [7]): 300 to 400 nM | GLP-1 agonism EC50 (human GLP-1 receptor [8]): 16 to 20 nM

[PhLac]TSDYSKYLDERRAKDFVK([3‑aminoprop‑1‑ynyl‑benzoic acid-Mpa-PEG 20 kDa])WLMDT-NH2 (lactam 11-15) [[PLA6,E16K20(Lactam), K24(rigid-S-20 kDa)]G(6-29)]
Glucagon antagonism IC50 (inhibit 0.2-0.8 nM glucagon) (human glucagon receptor [7]): 393 to 620 nM | GLP-1 agonism EC50 (human GLP-1 receptor [8]): 1360 to 2680 nM

[PhLac]TSDYSKYLDERRAKDFVQWLMDTGPGPGPGPGPC(PEG 20 kDa″)-NH2 (lactam 11-15) [[PLA6, E16K20(Lactam),D28,GP-C40(20 kDa)]G(6-40)]
Glucagon antagonism IC50 (inhibit 0.2-0.8 nM glucagon) (human glucagon receptor [7]): 423 nM | GLP-1 agonism EC50 (human GLP-1 receptor [8]): 43.6 nM

[PhLac]TSDYSKYLDERRAKDFVQWLMDGGPSSGAPPPSC(PEG 20 kDa″)-NH2 (lactam 11-15) [[PLA6, E16K20(Lactam),D28,G29, CEX-C40(20 kDa)]G(6-40)]
Glucagon antagonism IC50 (inhibit 0.2-0.8 nM glucagon) (human glucagon receptor [7]): 335 nM | GLP-1 agonism EC50 (human GLP-1 receptor [8]): 180 nM

[PhLac](C16 fatty acid)TSDYSKYLDERRAKDFVQWLMDT-NH2 (lactam 11-15) [[C16FA-O-PLA6, E16K20(lactam),D28]G(6-29)]
Glucagon antagonism IC50 (inhibit 0.4 nM glucagon) (human glucagon receptor [9]): 338 nM | GLP-1 agonism EC50 (human GLP-1 receptor [10]): 45.7 nM

[PhLac]TSDK([Glu-C16 fatty acid])SKYLDERRAKDFVQWLMDT-NH2 (lactam 11-15) [[PLA6, K10(EC16FA), E16K20(lactam),D28]G(6-29)]
Glucagon antagonism IC50 (inhibit 0.4 nM glucagon) (human glucagon receptor [9]): 31.1 nM | GLP-1 agonism EC50 (human GLP-1 receptor [10]): 129 nM
